Patent publication US20250346668A1 (GENOR BIOPHARMA, published 2025)

How the values were obtained:
CD3 on Jurkat cells = biological target: T1, CD3 on Jurkat cells (human); experiment: FACS on Jurkat cells, Alexa 488 secondary antibody, MFI [d]
T1 construct: native, on the surface of Jurkat cells; The sheets print only 'Jurkat'; also called human CD3; TCR/CD3 complex on the human T cell line Jurkat
Protocol: Jurkat cells were amplificatorily cultured to 3×10⁶/ml in a T-175 cell culture flask, the culture medium was removed by centrifugation, and the cells were washed twice with PBS buffer (purchased from Invitrogen). After cell counting, the cells were diluted to 2×10⁶ cells/ml with PBS buffer, added with 1% BSA blocking solution, where the percentage was a mass percentage, incubated on ice for 30 minutes, and then washed twice with PBS buffer by centrifugation. The collected cells were suspended to 2×10⁶ cells/mL with FACS buffer (PBS+1% BSA, where the percentage was a mass percentage), and added to a 96-well FACS reaction plate at 100 μl per well, and samples of the purified CD3 antibodies obtained in Example 4 to be tested were added at 100 μl per well, and incubated at 4° C. for 2 hours. The plate was washed twice with FACS buffer by centrifugation, added with 100 μl per well of fluorescent (Alexa 488) labeled secondary antibody (purchased from Jackson), and incubated at 4° C. for 1 hour. After washing 3 times by centrifugation with FACS buffer, the cells were suspended with 100 μl of FACS buffer, and detected and analyzed using BD FACS LSRFortessa (purchased from BD). The results are shown in FIG. 5, where the IgG control is human IgG1 (hIgG).

[1] = biological target: T2, human CD3e/g antigen (ACRO, catalog number CDG-H52W5) (human, UniProt P07766 23-126; P09693 23-116); experiment: SPR (Biacore 8K), antibody captured via anti-human Fc
T2 construct: Bought reagent used as the Biacore analyte; also called hCD3e/g
Method in brief: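 Anti-human IgG (Fc) antibody amine-coupled on CM5 chip captures CD3 antibodies; antigen injected at a concentration series. Association and dissociation curves fitted kinetically to give equilibrium dissociation constant.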

EC50 (read off the curve) (CD3 on Jurkat cells): ~3 nM | Kd [1]: 21.2 nM | koff [1]: 0.00372 s⁻¹ | kon [1]: 176000 M⁻¹ s⁻¹
B1: CAb008 (antibody, V domains shown)
VH: QVQLQQSGAELARPGASVKMSCKTSGYTFTDYTVNWVKQRPGQGLEWIGYINPFNSYTKYNQKFKDKATLTADKSSSTAYMQLSSLTSEDSAVYFCANSVSTYWGQGTTLTVSS
VL: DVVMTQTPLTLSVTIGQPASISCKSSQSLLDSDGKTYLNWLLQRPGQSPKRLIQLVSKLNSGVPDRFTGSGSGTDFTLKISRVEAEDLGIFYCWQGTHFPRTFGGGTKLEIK
notes: Chimeric: mouse variable regions linked to human light and heavy constant regions; constant regions not specified
